What was measured:
[1] = biological target: T1, human transferrin receptor 1 on HEK293F-hTfR1 cells (human, UniProt P02786 1-760); assay: flow cytometry on HEK293F-hTfR1 cells with or without transferrin
T1 construct: whole, on cells
Protocol: (§1) HEK293F-hTfR1 cells were prepared by transfecting hTfR1-expressing plasmid, with a GFP tag, into HEK293F cells. Stable pool was used for this assay. Briefly, the engineered HEK293F cells expressing hTfR1 were cultured with OPM-293 CD05 medium at 37° C., with 8% CO₂ and saturated humidity in cell shaker. […] The cells were washed twice by centrifugation at 300 g for 5 min at 4° C., before rabbit anti-OVA antibodies and a secondary anti-rabbit IgG-AF647 (all prepared in blocking buffer). The cells were scanned with CytoFLEX (Beckman).

[2] = biological target: T2, human transferrin (Sigma T3309) (human, UniProt P02787 20-698); assay: flow cytometry on HEK293F-hTfR1 cells with human transferrin, pH 6.0
T2 construct: mature; same polypeptide; also called native human transferrin; hTf
Protocol: as §1

[3] = biological target: T2, human transferrin (Sigma T3309); assay: flow cytometry on HEK293F-hTfR1 cells with human transferrin, pH 7.4; grade by % binding (+++ ≥ 15%)
Protocol: as §1

[4] = biological target: T2, human transferrin (Sigma T3309); assay: flow cytometry on HEK293F-hTfR1 cells with human transferrin, pH 7.4
Protocol: as §1

[5] = biological target: T2, human transferrin (Sigma T3309); assay: flow cytometry on HEK293F-hTfR1 cells with human transferrin, pH 6.0; grade by % binding (10% > + ≥ 5%); non-specific binding column also +
Protocol: as §1

T2 sequence (P02787 20-698): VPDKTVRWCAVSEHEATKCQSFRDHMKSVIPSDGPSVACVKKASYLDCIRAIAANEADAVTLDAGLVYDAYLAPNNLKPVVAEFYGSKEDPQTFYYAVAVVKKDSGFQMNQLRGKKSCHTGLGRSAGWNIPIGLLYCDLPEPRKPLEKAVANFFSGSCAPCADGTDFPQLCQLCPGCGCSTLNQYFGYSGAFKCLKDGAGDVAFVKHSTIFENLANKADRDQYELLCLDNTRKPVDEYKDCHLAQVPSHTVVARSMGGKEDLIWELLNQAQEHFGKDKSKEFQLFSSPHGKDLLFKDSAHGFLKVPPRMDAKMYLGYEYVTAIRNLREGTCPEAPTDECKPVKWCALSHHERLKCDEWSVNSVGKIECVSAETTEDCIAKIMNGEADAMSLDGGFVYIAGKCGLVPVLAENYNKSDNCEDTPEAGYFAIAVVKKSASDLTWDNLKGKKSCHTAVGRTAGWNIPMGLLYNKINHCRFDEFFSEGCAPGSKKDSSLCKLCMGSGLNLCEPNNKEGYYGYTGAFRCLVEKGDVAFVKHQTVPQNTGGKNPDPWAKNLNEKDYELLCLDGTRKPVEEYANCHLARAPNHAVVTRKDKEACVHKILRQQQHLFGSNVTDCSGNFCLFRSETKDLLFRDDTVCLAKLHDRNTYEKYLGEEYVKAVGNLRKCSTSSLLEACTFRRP
T1 sequence (P02786 whole entry): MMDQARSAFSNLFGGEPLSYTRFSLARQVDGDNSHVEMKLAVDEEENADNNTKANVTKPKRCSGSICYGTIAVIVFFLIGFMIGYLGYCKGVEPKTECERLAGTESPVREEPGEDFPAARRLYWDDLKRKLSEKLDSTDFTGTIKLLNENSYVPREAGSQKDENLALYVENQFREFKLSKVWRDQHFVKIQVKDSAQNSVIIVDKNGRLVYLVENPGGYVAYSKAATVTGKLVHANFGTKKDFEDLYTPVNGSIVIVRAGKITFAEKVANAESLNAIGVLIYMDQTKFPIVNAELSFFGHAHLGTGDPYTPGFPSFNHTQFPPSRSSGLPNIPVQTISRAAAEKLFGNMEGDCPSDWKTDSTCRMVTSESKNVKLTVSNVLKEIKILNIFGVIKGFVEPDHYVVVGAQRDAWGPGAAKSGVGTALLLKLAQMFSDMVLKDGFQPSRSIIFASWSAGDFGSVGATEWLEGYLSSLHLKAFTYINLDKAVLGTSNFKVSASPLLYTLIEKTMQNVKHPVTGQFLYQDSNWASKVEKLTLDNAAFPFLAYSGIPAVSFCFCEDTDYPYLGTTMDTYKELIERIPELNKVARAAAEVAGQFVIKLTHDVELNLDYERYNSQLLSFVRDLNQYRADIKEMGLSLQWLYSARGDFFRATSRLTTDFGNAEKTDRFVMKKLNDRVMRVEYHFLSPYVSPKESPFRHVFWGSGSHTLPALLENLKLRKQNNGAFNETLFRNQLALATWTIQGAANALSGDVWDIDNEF

Binder	binding result [1]	percent binding (flow cytometry, VHH/Tf on hTfR1-overexpressing cells, pH 6.0) [2] [%]	percent binding (flow cytometry, VHH/Tf on hTfR1-overexpressing cells, pH 7.4) [3] [%]	percent binding (flow cytometry, VHH/Tf on hTfR1-overexpressing cells, pH 7.4) [4] [%]	percent binding (flow cytometry, VHH/Tf on hTfR1-overexpressing cells, pH 6.0) [5] [%]
SLN0042 VHH-OVA-His (VHH, Tested as recombinant VHH-OVA-His; not shown: His tag) DVQLVESGGGSVQAGGSLRLSCAASGYTRSFTCMGWFRQAPGKEREGVATINPGTGSTYYADSVKGRFSISQDNAKNTVYLQMNTLKPEDTAMYYCAATQLFGCGSLAKSLFGYWGQGTLVTVSSGSIGAASMEFCFDVFKELKVHHANENIFYCPIAIMSALAMVYLGAKDSTRTQINKVVRFDKLPGFGDSIEAQCGTSVNVHSSLRDILNQITKPNDVYSFSLASRLYAEERYPILPEYLQCVKELYRGGLEPINFQTAADQARELINSWVESQTNGIIRNVLQPSSVDSQTAMVLVNAIVFKGLWEKAFKDEDTQAMPFRVTEQESKPVQMMYQIGLFRVASMASEKMKILELPFASGTMSMLVLLPDEVSGLEQLESIINFEKLTEWTSSNVMEERKIKVYLPRMKMEEKYNLTSVLMAMGITDVFSSSANLSGISSAESLKISQAVHAAHAEINEAGREVVGSAEAGVDAASVSEEFRADHPFLFCIKHIATNAVLFFGRCVSP	no binding (tested: 10 µg/mL)	< 5	≥ 15	–	–
SLN0066 VHH-OVA-His (negative control VHH) (VHH, not shown: His tag) HVQLVESGGGSVQAGGSLRLSCVASGIGHGFNNNCMGWFRQAPGKEREGVAAVYTGGGTPYYADSVKGRFTLSQDNAKNTLYLQMNGLDPEDTAMYYCVADIWRTYRCGAGDTTVFDYRGQGTLVTVSSGSIGAASMEFCFDVFKELKVHHANENIFYCPIAIMSALAMVYLGAKDSTRTQINKVVRFDKLPGFGDSIEAQCGTSVNVHSSLRDILNQITKPNDVYSFSLASRLYAEERYPILPEYLQCVKELYRGGLEPINFQTAADQARELINSWVESQTNGIIRNVLQPSSVDSQTAMVLVNAIVFKGLWEKAFKDEDTQAMPFRVTEQESKPVQMMYQIGLFRVASMASEKMKILELPFASGTMSMLVLLPDEVSGLEQLESIINFEKLTEWTSSNVMEERKIKVYLPRMKMEEKYNLTSVLMAMGITDVFSSSANLSGISSAESLKISQAVHAAHAEINEAGREVVGSAEAGVDAASVSEEFRADHPFLFCIKHIATNAVLFFGRCVSP	–	< 5	–	< 5	–
SLN0059 VHH-OVA-His (VHH, Tested as recombinant VHH-OVA-His; not shown: His tag) HVQLVESGGGSVQSGGSLRLSCAASGITISNYYMTWFRQAPGKEREGVAGLTRADVTLYADSVKGRFTISRDNAKNTLYLQMNSLKPEDTAMYYCAAADRFRVGLREADFSAWGQGTQVTVSSGSIGAASMEFCFDVFKELKVHHANENIFYCPIAIMSALAMVYLGAKDSTRTQINKVVRFDKLPGFGDSIEAQCGTSVNVHSSLRDILNQITKPNDVYSFSLASRLYAEERYPILPEYLQCVKELYRGGLEPINFQTAADQARELINSWVESQTNGIIRNVLQPSSVDSQTAMVLVNAIVFKGLWEKAFKDEDTQAMPFRVTEQESKPVQMMYQIGLFRVASMASEKMKILELPFASGTMSMLVLLPDEVSGLEQLESIINFEKLTEWTSSNVMEERKIKVYLPRMKMEEKYNLTSVLMAMGITDVFSSSANLSGISSAESLKISQAVHAAHAEINEAGREVVGSAEAGVDAASVSEEFRADHPFLFCIKHIATNAVLFFGRCVSP	–	–	–	< 5	5 to 10
SLN0043 VHH-OVA-His (VHH, Tested as recombinant VHH-OVA-His; not shown: His tag) DVQLVESGGGSVQAGGSLRLSCAASGVTWSRDWMAWFRQAPGKEREGVAAFVPSIGSTFYVDSVKGRFTISQDNAKNTLFLQMNSLKPEDTAMYYCATDPLWGRKYGGSWSDPSEYNYWGQGTQVTVSSGSIGAASMEFCFDVFKELKVHHANENIFYCPIAIMSALAMVYLGAKDSTRTQINKVVRFDKLPGFGDSIEAQCGTSVNVHSSLRDILNQITKPNDVYSFSLASRLYAEERYPILPEYLQCVKELYRGGLEPINFQTAADQARELINSWVESQTNGIIRNVLQPSSVDSQTAMVLVNAIVFKGLWEKAFKDEDTQAMPFRVTEQESKPVQMMYQIGLFRVASMASEKMKILELPFASGTMSMLVLLPDEVSGLEQLESIINFEKLTEWTSSNVMEERKIKVYLPRMKMEEKYNLTSVLMAMGITDVFSSSANLSGISSAESLKISQAVHAAHAEINEAGREVVGSAEAGVDAASVSEEFRADHPFLFCIKHIATNAVLFFGRCVSP	no binding (tested: 10 µg/mL)	< 5	–	–	–
SLN0057 VHH-OVA-His (VHH, Tested as recombinant VHH-OVA-His; not shown: His tag) HVQLVESGGGSVQAGGSLRLSCAASGHTYSIYYMAWFRQAPGKEREGVAVIYRGGSTTYADSAKGRFTVSQDNGKNTVYLQMNSLKAEDTAMYYCAAAHVLHVSSLLPGGYPYWGQGTLVTVSSGSIGAASMEFCFDVFKELKVHHANENIFYCPIAIMSALAMVYLGAKDSTRTQINKVVRFDKLPGFGDSIEAQCGTSVNVHSSLRDILNQITKPNDVYSFSLASRLYAEERYPILPEYLQCVKELYRGGLEPINFQTAADQARELINSWVESQTNGIIRNVLQPSSVDSQTAMVLVNAIVFKGLWEKAFKDEDTQAMPFRVTEQESKPVQMMYQIGLFRVASMASEKMKILELPFASGTMSMLVLLPDEVSGLEQLESIINFEKLTEWTSSNVMEERKIKVYLPRMKMEEKYNLTSVLMAMGITDVFSSSANLSGISSAESLKISQAVHAAHAEINEAGREVVGSAEAGVDAASVSEEFRADHPFLFCIKHIATNAVLFFGRCVSP	–	–	–	< 5	5 to 10
